B1: PTPN9 (parent)
chain: TQHLPRECLPENLGGYVKIDLATW

Variants of: B1
Assay: protein stability index of a GFP-peptide fusion (GPS, HEK-293T) (PSI 1-6); higher = more stable
Conditions: c terminus: a fixed tail appended
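Further: lentivirally expressed fusions sorted by FACS into six bins by GFP to DsRed ratio, PSI derived from sequencing read proportions per bin multiplied by bin number.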

Variant | protein stability index
TQHFPRECLPENLGGYVKIDLATW | 2.06
TQHSPRECLPENLGGYVKIDLATW | 1.8
TQHYPRECLPENLGGYVKIDLATW | 1.99
TQHPPRECLPENLGGYVKIDLATW | 2.5
TQHTPRECLPENLGGYVKIDLATW | 1.98
TQHRPRECLPENLGGYVKIDLATW | 2.04
TQHMPRECLPENLGGYVKIDLATW | 2.38
TQHDPRECLPENLGGYVKIDLATW | 2.31
TQHWPRECLPENLGGYVKIDLATW | 2.14
TQHNPRECLPENLGGYVKIDLATW | 2
TQHIPRECLPENLGGYVKIDLATW | 1.86
TQHEPRECLPENLGGYVKIDLATW | 2.46
TQHHPRECLPENLGGYVKIDLATW | 2.53
TQHCPRECLPENLGGYVKIDLATW | 2.43
TQHVPRECLPENLGGYVKIDLATW | 1.96
TQHAPRECLPENLGGYVKIDLATW | 1.8
TQHGPRECLPENLGGYVKIDLATW | 1.96
TQHKPRECLPENLGGYVKIDLATW | 2.1
TQHQPRECLPENLGGYVKIDLATW | 2.82
TQHLPRECMPENLGGYVKIDLATW | 2.03
TQHLPRECEPENLGGYVKIDLATW | 2.22
TQHLPRECTPENLGGYVKIDLATW | 2.01
TQHLPRECGPENLGGYVKIDLATW | 1.61
TQHLPRECNPENLGGYVKIDLATW | 1.97

Variant | protein stability index
TQHLPRECQPENLGGYVKIDLATW | 2.01
TQHLPRECFPENLGGYVKIDLATW | 1.94
TQHLPRECAPENLGGYVKIDLATW | 2.55
TQHLPRECVPENLGGYVKIDLATW | 1.65
TQHLPRECDPENLGGYVKIDLATW | 2.24
TQHLPRECKPENLGGYVKIDLATW | 2.47
TQHLPRECWPENLGGYVKIDLATW | 1.9
TQHLPRECYPENLGGYVKIDLATW | 1.97
TQHLPRECRPENLGGYVKIDLATW | 1.77
TQHLPRECPPENLGGYVKIDLATW | 2.18
TQHLPRECIPENLGGYVKIDLATW | 1.85
TQHLPRECCPENLGGYVKIDLATW | 1.73
TQHLPRECHPENLGGYVKIDLATW | 1.73
TQHLPRECSPENLGGYVKIDLATW | 1.75
YQHLPRECLPENLGGYVKIDLATW | 2.31
CQHLPRECLPENLGGYVKIDLATW | 1.51
SQHLPRECLPENLGGYVKIDLATW | 2.11
MQHLPRECLPENLGGYVKIDLATW | 1.57
EQHLPRECLPENLGGYVKIDLATW | 2.06
QQHLPRECLPENLGGYVKIDLATW | 2.05
HQHLPRECLPENLGGYVKIDLATW | 2.07
PQHLPRECLPENLGGYVKIDLATW | 2.07
NQHLPRECLPENLGGYVKIDLATW | 2.18
FQHLPRECLPENLGGYVKIDLATW | 2.14

Variant | protein stability index
DQHLPRECLPENLGGYVKIDLATW | 2.51
IQHLPRECLPENLGGYVKIDLATW | 1.72
WQHLPRECLPENLGGYVKIDLATW | 2.54
VQHLPRECLPENLGGYVKIDLATW | 1.74
LQHLPRECLPENLGGYVKIDLATW | 1.67
RQHLPRECLPENLGGYVKIDLATW | 2.1
KQHLPRECLPENLGGYVKIDLATW | 1.88
GQHLPRECLPENLGGYVKIDLATW | 2.15
TQHLPKECLPENLGGYVKIDLATW | 2.2
TQHLPFECLPENLGGYVKIDLATW | 1.81
TQHLPYECLPENLGGYVKIDLATW | 1.69
TQHLPMECLPENLGGYVKIDLATW | 2.16
TQHLPWECLPENLGGYVKIDLATW | 1.57
TQHLPTECLPENLGGYVKIDLATW | 2.2
TQHLPNECLPENLGGYVKIDLATW | 1.98
TQHLPPECLPENLGGYVKIDLATW | 2.24
TQHLPIECLPENLGGYVKIDLATW | 1.99
TQHLPQECLPENLGGYVKIDLATW | 2.31
TQHLPEECLPENLGGYVKIDLATW | 2.27
TQHLPDECLPENLGGYVKIDLATW | 2.52
TQHLPCECLPENLGGYVKIDLATW | 1.69
TQHLPVECLPENLGGYVKIDLATW | 2.26
TQHLPAECLPENLGGYVKIDLATW | 2.08
TQHLPGECLPENLGGYVKIDLATW | 2.51

Variant | protein stability index
TQHLPLECLPENLGGYVKIDLATW | 1.49
TQHLPSECLPENLGGYVKIDLATW | 2.18
TQHLPHECLPENLGGYVKIDLATW | 1.63
TQHLPRECLRENLGGYVKIDLATW | 2.24
TQHLPRECLTENLGGYVKIDLATW | 1.62
TQHLPRECLCENLGGYVKIDLATW | 1.8
TQHLPRECLGENLGGYVKIDLATW | 1.72
TQHLPRECLNENLGGYVKIDLATW | 2.23
TQHLPRECLQENLGGYVKIDLATW | 1.6
TQHLPRECLVENLGGYVKIDLATW | 1.82
TQHLPRECLMENLGGYVKIDLATW | 2.04
TQHLPRECLKENLGGYVKIDLATW | 1.77
TQHLPRECLFENLGGYVKIDLATW | 1.97
TQHLPRECLSENLGGYVKIDLATW | 2.49
TQHLPRECLHENLGGYVKIDLATW | 1.91
TQHLPRECLLENLGGYVKIDLATW | 1.55
TQHLPRECLAENLGGYVKIDLATW | 1.64
TQHLPRECLEENLGGYVKIDLATW | 2.44
TQHLPRECLWENLGGYVKIDLATW | 1.85
TQHLPRECLIENLGGYVKIDLATW | 1.61
TQHLPRECLDENLGGYVKIDLATW | 1.88
TKHLPRECLPENLGGYVKIDLATW | 1.86

— the supplement of paper PMC10567573
